The values below come from article PMC4667172.

In this test the target is T1, LONM (human mitochondrial matrix AAA+ protease) (human (endogenous in HeLa)) (UniProt P36776).
T1 sequence: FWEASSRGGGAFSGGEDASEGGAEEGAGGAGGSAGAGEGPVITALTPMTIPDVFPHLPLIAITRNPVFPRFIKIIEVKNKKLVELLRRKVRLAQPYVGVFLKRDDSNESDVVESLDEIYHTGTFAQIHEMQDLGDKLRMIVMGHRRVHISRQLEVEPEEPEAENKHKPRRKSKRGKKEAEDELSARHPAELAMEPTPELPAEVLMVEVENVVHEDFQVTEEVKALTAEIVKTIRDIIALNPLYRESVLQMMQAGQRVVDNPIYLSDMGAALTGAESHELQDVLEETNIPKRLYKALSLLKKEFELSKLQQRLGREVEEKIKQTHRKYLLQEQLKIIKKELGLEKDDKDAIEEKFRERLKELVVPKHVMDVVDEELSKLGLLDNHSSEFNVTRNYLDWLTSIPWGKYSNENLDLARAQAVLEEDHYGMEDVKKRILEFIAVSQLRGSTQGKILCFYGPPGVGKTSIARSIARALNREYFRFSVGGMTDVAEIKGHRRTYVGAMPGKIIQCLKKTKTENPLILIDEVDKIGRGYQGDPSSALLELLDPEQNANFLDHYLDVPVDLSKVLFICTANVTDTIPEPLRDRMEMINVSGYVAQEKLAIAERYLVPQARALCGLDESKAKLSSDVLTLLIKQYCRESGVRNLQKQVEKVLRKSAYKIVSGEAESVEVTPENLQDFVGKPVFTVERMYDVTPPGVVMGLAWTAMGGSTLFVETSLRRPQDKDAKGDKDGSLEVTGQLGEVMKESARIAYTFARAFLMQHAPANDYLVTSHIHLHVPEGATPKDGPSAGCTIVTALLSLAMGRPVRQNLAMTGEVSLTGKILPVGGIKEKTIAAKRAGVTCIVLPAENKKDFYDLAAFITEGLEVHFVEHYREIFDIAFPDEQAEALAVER

B1: Pig heart mitochondrial malate dehydrogenase (MDH) (natural protein)
chain: AKVAVLGASGGIGQPLSLLLKNSPLVSRLTLYDIAHTPGVAADLSHIETRATVKGYLGPEQLPDCLKGCDVVVIPAGVPRKPGMTRDDLFNTNATIVATLTAACAQHCPDAMICIISNPVNSTIPITAEVFKKHGVYNPNKIFGVTTLDIVRANAFVAELKGLDPARVSVPVIGGHAGKTIIPLISQCTPKVDFPQDQLSTLTGRIQEAGTEVVKAKAGAGSATLSMAYAGARFVFSLVDAMNGKEGVVECSFVKSQETDCPYFSTPLLLGKKGIEKNLGIGKISPFEEKMIAEAIPELKASIKKGEEFVKNMK
Consider B1, for which the half-life of guanidine-unfolded MDH (MDHU) in in vitro degradation by purified recombinant LONM with ATP was found to be 4 min.

B2: mature recombinant OTC (rat ornithine transcarbamylase) (natural protein)
chain: SQVQLKGRDLLTLKNFTGEEIQYMLWLSADLKFRIKQKGEYLPLLQGKSLGMIFEKRSTRTRLSTETGFALLGGHPSFLTTQDIHLGVNESLTDTARVLSSMTDAVLARVYKQSDLDILAKEATIPIVNGLSDLYHPIQILADYLTLQEHYGSLKGLTLSWIGDGNNILHSIMMSAAKFGMHLQAATPKGYEPDPNIVKLAEQYAKENGTRLSMTNDPLEAARGGNVLITDTWISMGQEDEKKKRLQAFQGYQVTMKTAKVAASDWTFLHCLPRKPEEVDDEVFYSPRSLVFPEAENRKWTIMAVMVSLLTDYSPVLQKPKF
Take B2: the half-life of guanidine-unfolded OTC (OTCU) in in vitro degradation by purified recombinant LONM with ATP came to 15 min.
